Experimental data published in the nanobody polyreactivity screen of Harvey et al. (2022).

Experiment: yeast display, Sf9 membrane polyspecificity reagent, FACS + sequencing; frameworks hold sequencing errors
Outline: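 Genes from sorted yeast were amplified by colony PCR, read by MiSeq 2 × 250 sequencing and filtered on CDR length. These cells carried a synthetic nanobody library in Saccharomyces cerevisiae BJ5465 and were sorted by FACS into low and high (top ~1%) gates on anti-HA and streptavidin fluorescence. Polyreactivity is labelled according to the gate of origin.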

Row | Sequence | polyreactivity (PSR sort gate)
1 | QVQLVESGGGLVQAGGSLRLSCAASGRTFSTNAMGWYRQAPGKERELVAAITSRGGSTYYADSVKGRFTISRDNAKNTVYLQMNSLKPEDPAVYYCAVDPLYYKTHYGTLGYYYLGQGTQVTVSS | low polyreactivity
2 | QVQLVESGGGLVQAGGSLRLSCAASGRTFSTYAMGWYRQAPGKERELFAAISSGGGRTYYADSVKGRFTISRDNAKNTVYLQMNSLKPEDTAVYYCAADRYFRSRRSYEYWGQGTQVTVSS | low polyreactivity
3 | QVQLVESGGGLVQAGGSLRLSCAASGRTFSTYAMGWYRQATGKERELVAAIRSGGSTYYADSVKGRFTISRDNAKNTVYLQMNSLKPEDTAVYYCNALPRPSIFRYDYWGQGTQVTVSS | high polyreactivity
4 | QVQLVESGGGLVQAGGSLRLSCAASGRTFSVNAMGWYRQAPGKEREFVAAITGSTGSTFYADSVKGRFTISRDNAKNSVYLQMNSLKPDDTAVYYCAAGPWFYYWGQGTQVTVSS | low polyreactivity
5 | QVQLVESGGGLVQAGGSLRLSCAASGRTFSVNAMGWYRQAPGKERELVAAISWDGGSTYYADSVKGRFTISRDNAKNTVYLQMNSLKPEDTAVYYCNADYSIPGYYWPYDYWGQGTQVTVSS | low polyreactivity
6 | QVQLVESGGGLVQAGGSLRLSCAASGRTFSVNDMGRYRQAPGKEREMVAAISFSGGSTYYADSVKGRFTISRDDAKNTVYLQMNSLKPEDTAVYYCAAEAYPSWFYVITGFGIYDYWGQGTQVTVSS | high polyreactivity
7 | QVQLVESGGGLVQAGGSLRLSCAASGRTFSVNDMGWYRQAPGKERELVAAISFSGGSTYYADSVKGRFTISRDNAKNTVYLQMNSLKPEDTAVYYCAAEAYPSWFYVITGFGIYDYWGQGTQVTVSS | high polyreactivity
8 | QVQLVESGGGLVQAGGSLRLSCAASGRTFSVNDMGWYRQAPGKERELVAAISFSGGSTYYADSVKGRFTISRDNAKNTVYLQMNSLKPEDTAVYYCAARVRWWSPGGYWGQGTQVTVSS | high polyreactivity
9 | QVQLVESGGGLVQAGGSLRLSCAASGRTFSVYAMGWYRQAPGKERELVAAIRTSGGITYYADSVKGRFTISRDNAKNTVYLQMNSLKPEDTAVYYCAAETFRPYSYTRYYYWGQGSQVTVSS | high polyreactivity
10 | QVQLVESGGGLVQAGGSLRLSCAASGRTFSWNAMGWYRQAPGKERELVAAISNSGGSTYYADSVKGRFTISRHNAKNPVYLQMNSLKPEDTAVYYCAADDIYKYYQYYAFPYYRYDYWGQGTQVTVSS | low polyreactivity
11 | QVQLVESGGGLVQAGGSLRLSCAASGRTFSWYAMGGYRQAPGTERELVASISRGGSKSYADSVKGRFTISRDNAKNTVYLQMNSLKPEYTAVYYCAAGGFARTISYYWGQGTQVTVSS | high polyreactivity
12 | QVQLVESGGGLVQAGGSLRLSCAASGRTFSYNAIGWYRLAPGKERELVARISSGGSTNYADSVKGRFTISRDNAKNTVYLQMNSLKPEDTAVYYCNAVYRTYEYYWGQGTQVTVSS | high polyreactivity
13 | QVQLVESGGGLVQAGGSLRLSCAASGRTFSYNAMGWYRQAPGKERELVASISSSGTSTSYADSVKGRFTISRDNAKNTVYLQMNSLKPEDTAVYYCATVRYPYWYSGPQNSRGYWGQGTQVTVSS | high polyreactivity
14 | QVQLVESGGGLVQAGGSLRLSCAASGRTFSYYAMGWSRQAPGKERELVATIRFSGGGTYYADSVKGRFTISRDNAKNTVYLLMNSLKPEATAVYYCAALNYHKFAHKYDYWGQGTQVTVSS | low polyreactivity
15 | QVQLVESGGGLVQAGGSLRLSCAASGRTFSYYAMGWYRKAPGKERELVAAFSGRGASTYYADSVKGRFTISRDNAKNTVYVQMNSLKPEDTAVYYCNAVPYYQYEYWGQGTQVTVSS | low polyreactivity
16 | QVQLVESGGGLVQAGGSLRLSCAASGRTFSYYAMGWYRQAPGKEREFVAAISSTGTSTYYADSVKGRFTISRDTAKNTVYLQKNSLKPEDTAVYYCNARLATYRLHSKFYYWGQGTQVTVSS | high polyreactivity
